# Experimental data published in patent US20240109965A1 (Ablynx, published 2024).
# T1: cynomolgus TCRαβ-zipper protein (cynomolgus)
# T1 construct: also called cyTCR(AEA41865)-zipper; CynoTCRαβ-zipper
# T1 TCR alpha: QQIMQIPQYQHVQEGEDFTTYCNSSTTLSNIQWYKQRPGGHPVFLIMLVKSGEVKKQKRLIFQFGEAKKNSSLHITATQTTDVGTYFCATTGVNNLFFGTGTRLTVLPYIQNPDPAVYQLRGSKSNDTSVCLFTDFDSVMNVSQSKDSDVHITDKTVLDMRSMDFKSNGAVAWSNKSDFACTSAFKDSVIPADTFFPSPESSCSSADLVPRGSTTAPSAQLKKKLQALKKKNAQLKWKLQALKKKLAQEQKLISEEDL
# T1 TCR beta: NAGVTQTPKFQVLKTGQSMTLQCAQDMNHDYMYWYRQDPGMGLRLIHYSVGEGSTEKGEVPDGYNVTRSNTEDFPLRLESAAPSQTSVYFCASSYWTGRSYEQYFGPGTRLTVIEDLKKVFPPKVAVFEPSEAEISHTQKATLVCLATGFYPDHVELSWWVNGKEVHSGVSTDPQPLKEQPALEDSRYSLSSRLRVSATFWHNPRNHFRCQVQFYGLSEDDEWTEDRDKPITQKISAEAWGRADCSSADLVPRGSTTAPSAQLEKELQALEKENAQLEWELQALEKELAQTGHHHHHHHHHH
# Biological target: human T cell receptor (TCRαβ) on primary human T cells (human)
# Sequence (P0DTU3 134-275, chain 1 of 2): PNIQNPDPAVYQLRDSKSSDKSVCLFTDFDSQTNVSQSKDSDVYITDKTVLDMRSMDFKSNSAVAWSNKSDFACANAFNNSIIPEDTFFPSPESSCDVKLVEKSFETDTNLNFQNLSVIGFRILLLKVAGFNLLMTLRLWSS
# Sequence (P01850 other isoform, or with tags, fused parts or gaps, chain 2 of 2, further chain): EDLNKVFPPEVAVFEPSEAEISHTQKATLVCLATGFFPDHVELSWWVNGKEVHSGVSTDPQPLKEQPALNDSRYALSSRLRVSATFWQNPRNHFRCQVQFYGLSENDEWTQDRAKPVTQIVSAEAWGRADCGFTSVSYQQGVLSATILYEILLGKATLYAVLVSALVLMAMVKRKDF
# Test: cell-based or functional assay
Binder,"EC50 (M), human T cell mediated MOLM-13 cell killing, Donor #1 [M]","EC50 (M), human T cell mediated MOLM-13 cell killing, Donor #2 [M]"
T017001022 (bispecific antibody) DVQLVESGGGVVQPGGSLRLSCVASGYVHKINFYGWYRQAPGKEREKVAHISIGDQTDYADSAKGRFTISRDESKNTVYLQMNSLRPEDTAAYYCRALSRIWPYDYWGQGTLVTVSSGGGGSGGGSEVQLVESGGGVVQPGGSLRLSCAASGTTLDYYVIGWFRQAPGKEREGVSCISSSDGYTYYADSVKGRFTISRDNAKNTVYLQMNSLRPEDTALYYCATDPYYSSCHPFFADYEYDYWGQGTLVTVSSGGGGSGGGSEVQLVESGGGVVQPGGSLRLSCAASGFTFRSFGMSWVRQAPGKGPEWVSSISGSGSDTLYADSVKGRFTISRDNSKNTLYLQMNSLRPEDTALYYCTIGGSLSRSSQGTLVTVSS,1.5e-11,1.4e-10

# Biological target: T1, cynomolgus TCRαβ-zipper protein
# Test: SPR Biacore 8K+, multi-cycle kinetics, TCR-zipper immobilized
# Protocol: Binding of purified TCE-CD123-ALB and CD123-TCE-ALB ISVD constructs to human TCRαβ-zipper protein (huTCR(2XN9)-zipper, in-house produced) and cynomolgus TCRαβ-zipper protein (cyTCR(AEA41865)-zipper, in-house produced) was probed by Surface Plasmon Resonance (SPR) (Cytiva, Biacore 8K+). Both targets were immobilized on a CM5 sensor chip using standard amine coupling chemistry. […] Each concentration of the ISVDs was injected for 180s and dissociation was assessed during 600s.
# Data was double referenced by subtracting a reference flow cell (FC) and a blank buffer injection. Affinity constants (ka, kd and KD) were calculated applying the Langmuir 1:1 interaction model using the Biacore Insight Evaluation Software (Cytiva, Version 3.0.12.15655).
row,Kd [nM],Binder
1,9100,T017001029 (bispecific antibody) EVQLVESGGGVVQPGGSLRLSCAASGTTLDYYVIGWFRQAPGKEREGVSCISSSDGYTYYADSVKGRFTISRDNAKNTVYLQMNSLRPEDTALYYCATDPYYSSCHPFFADYEYDYWGQGTLVTVSSGGGGSGGGSEVQLVESGGGVVQPGGSLRLSCVASGYVHKINFYGWYRQAPGKEREKVAHISIGDQTDYAESAKGRFTISRDESKNTVYLQMNSLRPEDTAAYYCRALSRITPYDYWGQGTLVTVSSGGGGSGGGSEVQLVESGGGVVQPGGSLRLSCAASGFTFRSFGMSWVRQAPGKGPEWVSSISGSGSDTLYADSVKGRFTISRDNSKNTLYLQMNSLRPEDTALYYCTIGGSLSRSSQGTLVTVSS
2,18000,T017001031 (bispecific antibody) EVQLVESGGGVVQPGGSLRLSCAASGTTLDYYVIGWFRQAPGKEREGVSCISSSDGYTYYADSVKGRFTISRDNAKNTVYLQMNSLRPEDTALYYCATDPYYSSCHPFFADYEYDYWGQGTLVTVSSGGGGSGGGSEVQLVESGGGVVQPGGSLRLSCVASGYVHKINFYGWYRQAPGKEREKVAHISIGDQTDYAESAKGRFTISRDESKNTVYLQMNSLRPEDTAAYYCRALSRIQPYDYWGQGTLVTVSSGGGGSGGGSEVQLVESGGGVVQPGGSLRLSCAASGFTFRSFGMSWVRQAPGKGPEWVSSISGSGSDTLYADSVKGRFTISRDNSKNTLYLQMNSLRPEDTALYYCTIGGSLSRSSQGTLVTVSS
3,15,T017001022 (bispecific antibody) DVQLVESGGGVVQPGGSLRLSCVASGYVHKINFYGWYRQAPGKEREKVAHISIGDQTDYADSAKGRFTISRDESKNTVYLQMNSLRPEDTAAYYCRALSRIWPYDYWGQGTLVTVSSGGGGSGGGSEVQLVESGGGVVQPGGSLRLSCAASGTTLDYYVIGWFRQAPGKEREGVSCISSSDGYTYYADSVKGRFTISRDNAKNTVYLQMNSLRPEDTALYYCATDPYYSSCHPFFADYEYDYWGQGTLVTVSSGGGGSGGGSEVQLVESGGGVVQPGGSLRLSCAASGFTFRSFGMSWVRQAPGKGPEWVSSISGSGSDTLYADSVKGRFTISRDNSKNTLYLQMNSLRPEDTALYYCTIGGSLSRSSQGTLVTVSS

# Biological target: T1, cynomolgus TCRαβ-zipper protein
# Test: SPR ProteOn XPR36, multi-cycle kinetics, TCR-zipper immobilized;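 also: monovalent His-tagged ISVD constructs flowed at six concentrations over amine-coupled TCR on a GLC chip, 120 s association, 600 s dissociation, double-referenced, fitted to 1:1 Langmuir model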
# Protocol: Binding of purified, monovalent TCE-FLAG3-HIS6 and TCE-HIS6 ISVD constructs to human TCRαβ-zipper protein (huTCR(2XN9)-zipper, in-house produced) and cynomolgus TCRαβ-zipper protein (cyTCR(AEA41865)-zipper, in-house produced) was probed by Surface Plasmon Resonance (SPR) (Bio-rad Laboratories, Inc., ProteOn XPR36). Both targets were immobilized on a GLC sensor chip (short matrix, normal capacity) using standard amine coupling chemistry. ISVD constructs were injected at 6 different concentrations in a multi-cycle kinetics (MCK) experiment. Each concentration of the ISVDs was injected for 120s and dissociation was assessed during 600s.
# Data was double referenced by subtracting a reference analyte lane and a blank buffer injection. Affinity constants (ka, kd and KD) were calculated applying the Langmuir 1:1 interaction model using the ProteOn Manager 3.1.0 (Bio-rad Laboratories, Inc., Version 3.1.0.6).
Binder,Kd [nM],KD ratio cy/huTCR,KD ratio vs ref,koff [s⁻¹],kon [M⁻¹ s⁻¹]
T017000700 (VHH) VHH: EVQLVESGGGVVQPGGSLRLSCVASGYVHKINFYGWYRQAPGKEREKVAHISIGDQTDYADSAKGRFTISRDESKNTVYLQMNSLRPEDTAAYYCRALSRIWPYDYWGQGTLVTVSS,8,–,–,–,–
T017001001 (VHH) VHH: EVQLVESGGGVVQPGGSLRLSCVASGYVHKINFYGWYRQAPGKEREKVAHISIGDQTDYAESAKGRFTISRDESKNTVYLQMNSLRPEDTAAYYCRALSRITPYDYWGQGTLVTVSS,1100,3.1,133,0.034,32000
T017000949 (VHH) VHH: EVQLVESGGGVVQPGGSLRLSCVASGYVHKINFYGWYRQAPGKEREKVAHISIGDQTDYAQSAKGRFTISRDESKNTVYLQMNSLRPEDTAAYYCRALSRIWPYDYWGQGTLVTVSS,6.8,3.2,0.8,0.0019,280000
"T017000999 (VHH, also called T01700999) VHH: EVQLVESGGGVVQPGGSLRLSCVASGYVHKINFYGWYRQAPGKEREKVAHISIGDQTDYAESAKGRFTISRDESKNTVYLQMNSLRPEDTAAYYCRALSRISPYDYWGQGTLVTVSS",350,2.5,43,0.018,51000
T017000944 (VHH) VHH: EVQLVESGGGVVQPGGSLRLSCVASGYVHKINFYGWYRQAPGKEREKVAHISIGDQTDYAVSAKGRFTISRDESKNTVYLQMNSLRPEDTAAYYCRALSRIWPYDYWGQGTLVTVSS,7,3,0.9,0.0019,280000
T017000940 (VHH) VHH: EVQLVESGGGVVQPGGSLRLSCVASGYVHKINFYGWYRQAPGKEREKVAHISIGDQTDYARSAKGRFTISRDESKNTVYLQMNSLRPEDTAAYYCRALSRIWPYDYWGQGTLVTVSS,6.1,3.2,0.8,0.0019,320000
T017000945 (VHH) VHH: EVQLVESGGGVVQPGGSLRLSCVASGYVHKINFYGWYRQAPGKEREKVAHISIGDQTDYAESAKGRFTISRDESKNTVYLQMNSLRPEDTAAYYCRALSRIWPYDYWGQGTLVTVSS,7.1,3.1,0.9,0.0018,260000
T017000967 (VHH) VHH: EVQLVESGGGVVQPGGSLRLSCVASGYVHKINFYGWYRQAPGKEREKVAHISIGDQTDYADSAKGRFTISRDESKNTVYLQMNSLRPEDTAAYYCRALSRIYPYDYWGQGTLVTVSS,14,3.1,1.7,0.0028,200000
"T017000978 (VHH, also called T01700978) VHH: EVQLVESGGGVVQPGGSLRLSCVASGYVHKINFYGWYRQAPGKEREKVAHISIGDQTDYAESAKGRFTISRDESKNTVYLQMNSLRPEDTAAYYCRALSRIYPYDYWGQGTLVTVSS",20,4,2.5,0.0033,170000
T017000980 (VHH) VHH: EVQLVESGGGVVQPGGSLRLSCVASGYVHKINFYGWYRQAPGKEREKVAHISIGDQTDYAQSAKGRFTISRDESKNTVYLQMNSLRPEDTAAYYCRALSRIYPYDYWGQGTLVTVSS,17,4,2.1,0.0034,210000
T017000977 (VHH) VHH: EVQLVESGGGVVQPGGSLRLSCVASGYVHKINFYGWYRQAPGKEREKVAHISIGDQTDYAVSAKGRFTISRDESKNTVYLQMNSLRPEDTAAYYCRALSRIYPYDYWGQGTLVTVSS,19,4.3,2.4,0.0035,180000
T017000946 (VHH) VHH: EVQLVESGGGVVQPGGSLRLSCVASGYVHKINFYGWYRQAPGKEREKVAHISIGDQTDYAASAKGRFTISRDESKNTVYLQMNSLRPEDTAAYYCRALSRIWPYDYWGQGTLVTVSS,7,3.1,0.9,0.0019,270000

# Results, then the binder that gave them:
Kd [nM],KD ratio cy/huTCR,KD ratio vs ref,koff [s⁻¹],kon [M⁻¹ s⁻¹],Binder
19,3.8,2.3,0.0035,180000,T017000979 (VHH) VHH: EVQLVESGGGVVQPGGSLRLSCVASGYVHKINFYGWYRQAPGKEREKVAHISIGDQTDYAASAKGRFTISRDESKNTVYLQMNSLRPEDTAAYYCRALSRIYPYDYWGQGTLVTVSS
7.4,3,0.9,0.002,260000,T017000951 (VHH) VHH: EVQLVESGGGVVQPGGSLRLSCVASGYVHKINFYGWYRQAPGKEREKVAHISIGDQTDYASSAKGRFTISRDESKNTVYLQMNSLRPEDTAAYYCRALSRIWPYDYWGQGTLVTVSS
2000,2,246,0.093,47000,T017000995 (VHH) VHH: EVQLVESGGGVVQPGGSLRLSCVASGYVHKINFYGWYRQAPGKEREKVAHISIGDQTDYAESAKGRFTISRDESKNTVYLQMNSLRPEDTAAYYCRALSRIQPYDYWGQGTLVTVSS
15,3.9,1.9,0.0035,230000,T017000976 (VHH) VHH: EVQLVESGGGVVQPGGSLRLSCVASGYVHKINFYGWYRQAPGKEREKVAHISIGDQTDYARSAKGRFTISRDESKNTVYLQMNSLRPEDTAAYYCRALSRIYPYDYWGQGTLVTVSS
17,3.8,2.1,0.0035,210000,T017000981 (VHH) VHH: EVQLVESGGGVVQPGGSLRLSCVASGYVHKINFYGWYRQAPGKEREKVAHISIGDQTDYASSAKGRFTISRDESKNTVYLQMNSLRPEDTAAYYCRALSRIYPYDYWGQGTLVTVSS
6.7,3.2,0.8,0.0019,280000,T017000938 (VHH) VHH: EVQLVESGGGVVQPGGSLRLSCVASGYVHKINFYGWYRQAPGKEREKVAHISIGDQTDYAPSAKGRFTISRDESKNTVYLQMNSLRPEDTAAYYCRALSRIWPYDYWGQGTLVTVSS
